Values quoted from earlier work, collected in paper PMC9783754.

Target: S100A12 (Homo sapiens) (UniProt P80511)
Sequence (P80511 2-92): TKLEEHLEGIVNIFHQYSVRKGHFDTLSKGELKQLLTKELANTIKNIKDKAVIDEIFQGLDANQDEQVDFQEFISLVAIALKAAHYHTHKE

Sequence of S100A12 (P80511 2-92): as above

Kd: 160 µM
Substance: S100A12 (from UniProt P80511)
